# Data from patent publication US20050234225A1.
# B1: p1C11 scFv (scFv, from another filing)
# scFv: QVKLQQSGAELVGSGASVKLSCTTSGFNIKDFYMHWVKQRPEQGLEWIGWIDPENGDSDYAPKFQGKATMTADSSSNTAYLQLSSLTSEDTAVYYCNAYYGDYEGYWGQGTTVTVSSGGGGSGGGGSGGGGSDIELTQSPAIMSASPGEKVTITCSASSSVSYMHWFQQKPGTSPKLWIYSTSNLASGVPARFSGSGSGTSYSLTISRMEAEDAATYYCQQRSSYPFTFGSGTKLEIK
# Target: KDR-alkaline phosphatase (AP) soluble fusion protein (human) (UniProt P35968)
# Test: BIAcore SPR, KDR immobilized
# Sequence of KDR-alkaline phosphatase (AP) soluble fusion protein (human) (P35968 20-764): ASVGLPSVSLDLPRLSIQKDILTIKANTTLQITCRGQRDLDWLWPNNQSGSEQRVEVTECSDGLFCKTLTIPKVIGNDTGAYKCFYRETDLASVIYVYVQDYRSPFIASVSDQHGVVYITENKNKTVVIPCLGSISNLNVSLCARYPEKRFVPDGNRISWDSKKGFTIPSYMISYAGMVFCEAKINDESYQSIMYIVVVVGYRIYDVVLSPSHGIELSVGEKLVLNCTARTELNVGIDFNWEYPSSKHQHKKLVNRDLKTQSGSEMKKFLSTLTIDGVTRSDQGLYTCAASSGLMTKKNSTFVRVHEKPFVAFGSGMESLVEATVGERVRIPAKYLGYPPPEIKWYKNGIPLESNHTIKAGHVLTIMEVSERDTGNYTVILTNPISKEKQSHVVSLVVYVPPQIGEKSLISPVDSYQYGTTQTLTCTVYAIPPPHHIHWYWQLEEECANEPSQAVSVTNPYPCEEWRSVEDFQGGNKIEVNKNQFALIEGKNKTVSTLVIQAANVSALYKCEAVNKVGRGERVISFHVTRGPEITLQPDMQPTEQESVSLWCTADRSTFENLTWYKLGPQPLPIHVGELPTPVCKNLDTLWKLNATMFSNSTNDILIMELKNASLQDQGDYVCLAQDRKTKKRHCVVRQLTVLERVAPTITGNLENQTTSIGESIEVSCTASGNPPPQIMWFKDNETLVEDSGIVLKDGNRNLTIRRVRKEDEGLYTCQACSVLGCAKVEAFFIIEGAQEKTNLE
binder,measurement,value
B1,Kd,1.4 nM
same,koff,0.0001 s⁻¹
same,kon,77000 M⁻¹ s⁻¹
